Assay [1] deals with T1, cMet-Fc fusion protein (extracellular domain of the cMet receptor expressed as an Fc-fusion protein) (human, UniProt P08581 25-932).
T1 construct: extracellular domain; also called soluble cMet-Fc-fusion protein; soluble cMet receptor; not shown: Fc part
Kind of assay: phage ELISA, cMet-Fc vs TRAIL-Fc. The method, boiled down: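 Specificity check: phage displaying peptides incubated 2 h at room temperature on wells coated with 0.5 μg/mL cMet-Fc versus TRAIL-Fc, after blocking with 3% BSA/PBST. HRP-anti-M13 antibody detected binding phage.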

For assay [2], the target named is T2, human cMet expressed on 3T3 cells (human, UniProt P08581 25-1390).
T2 construct: whole, on cells; cells fixed with glutaraldehyde; also called cell surface-expressed human cMet; 3T3 cells that over-express human cMet
T2 sequence (P08581 25-1390): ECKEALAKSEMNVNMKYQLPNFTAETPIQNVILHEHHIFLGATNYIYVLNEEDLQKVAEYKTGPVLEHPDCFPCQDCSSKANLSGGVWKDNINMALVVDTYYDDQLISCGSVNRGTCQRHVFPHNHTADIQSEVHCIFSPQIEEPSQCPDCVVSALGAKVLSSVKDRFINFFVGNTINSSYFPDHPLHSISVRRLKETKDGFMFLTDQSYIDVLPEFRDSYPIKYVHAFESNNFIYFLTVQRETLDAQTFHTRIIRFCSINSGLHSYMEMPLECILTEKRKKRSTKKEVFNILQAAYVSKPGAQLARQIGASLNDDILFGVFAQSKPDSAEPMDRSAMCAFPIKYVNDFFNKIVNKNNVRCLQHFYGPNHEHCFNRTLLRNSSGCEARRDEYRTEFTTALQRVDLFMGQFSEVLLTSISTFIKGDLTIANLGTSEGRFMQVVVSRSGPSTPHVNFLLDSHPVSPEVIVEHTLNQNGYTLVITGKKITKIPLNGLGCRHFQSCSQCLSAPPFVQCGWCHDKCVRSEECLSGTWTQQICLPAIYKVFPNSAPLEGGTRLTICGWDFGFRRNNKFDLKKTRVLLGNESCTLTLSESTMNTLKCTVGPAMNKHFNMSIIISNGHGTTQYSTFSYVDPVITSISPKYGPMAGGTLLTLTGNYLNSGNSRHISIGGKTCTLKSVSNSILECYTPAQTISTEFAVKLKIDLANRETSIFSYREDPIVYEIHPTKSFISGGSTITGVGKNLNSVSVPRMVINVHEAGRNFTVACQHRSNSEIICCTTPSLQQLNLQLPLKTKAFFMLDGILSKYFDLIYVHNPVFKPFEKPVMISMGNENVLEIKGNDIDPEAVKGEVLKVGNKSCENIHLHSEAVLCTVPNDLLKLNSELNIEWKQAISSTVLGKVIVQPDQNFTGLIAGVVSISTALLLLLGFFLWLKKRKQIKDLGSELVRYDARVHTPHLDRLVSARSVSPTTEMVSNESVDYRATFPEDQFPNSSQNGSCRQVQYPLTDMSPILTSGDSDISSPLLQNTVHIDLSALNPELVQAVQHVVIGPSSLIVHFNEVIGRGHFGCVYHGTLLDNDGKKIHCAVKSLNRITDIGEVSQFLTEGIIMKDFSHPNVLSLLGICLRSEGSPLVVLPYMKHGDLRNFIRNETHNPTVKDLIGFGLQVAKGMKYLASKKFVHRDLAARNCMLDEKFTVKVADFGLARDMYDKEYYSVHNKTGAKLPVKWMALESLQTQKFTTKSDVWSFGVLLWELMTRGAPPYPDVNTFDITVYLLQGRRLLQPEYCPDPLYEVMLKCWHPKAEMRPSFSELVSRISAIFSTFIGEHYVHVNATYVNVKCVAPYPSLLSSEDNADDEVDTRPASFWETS
Description: whole cell phage ELISA, 3T3 human cMet vs 3T3. The method, boiled down: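 Bound phage was detected with an HRP-conjugated anti-M13 antibody after PBST washes. The cells were cMet-over-expressing 3T3, read against plain 3T3.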

Assay [3] has as its target T1, cMet-Fc fusion protein (extracellular …). Kind of assay: phage ELISA on cMet-Fc, competitor HGF 100 ng/mL. The gist of the method: (§1)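 Plates coated with 0.5 μg/mL cMet-Fc, with TRAIL-Fc as background, then blocked with 3% BSA. Bound phage detected with HRP anti-M13 antibody.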
Assay [4] shares this target. Description: phage ELISA on cMet-Fc, competitor HGF 500 ng/mL. The method, boiled down: as §1

We go through 28 molecules from patent US20120039802A1 (published 2012).

T1 sequence (P08581 25-932): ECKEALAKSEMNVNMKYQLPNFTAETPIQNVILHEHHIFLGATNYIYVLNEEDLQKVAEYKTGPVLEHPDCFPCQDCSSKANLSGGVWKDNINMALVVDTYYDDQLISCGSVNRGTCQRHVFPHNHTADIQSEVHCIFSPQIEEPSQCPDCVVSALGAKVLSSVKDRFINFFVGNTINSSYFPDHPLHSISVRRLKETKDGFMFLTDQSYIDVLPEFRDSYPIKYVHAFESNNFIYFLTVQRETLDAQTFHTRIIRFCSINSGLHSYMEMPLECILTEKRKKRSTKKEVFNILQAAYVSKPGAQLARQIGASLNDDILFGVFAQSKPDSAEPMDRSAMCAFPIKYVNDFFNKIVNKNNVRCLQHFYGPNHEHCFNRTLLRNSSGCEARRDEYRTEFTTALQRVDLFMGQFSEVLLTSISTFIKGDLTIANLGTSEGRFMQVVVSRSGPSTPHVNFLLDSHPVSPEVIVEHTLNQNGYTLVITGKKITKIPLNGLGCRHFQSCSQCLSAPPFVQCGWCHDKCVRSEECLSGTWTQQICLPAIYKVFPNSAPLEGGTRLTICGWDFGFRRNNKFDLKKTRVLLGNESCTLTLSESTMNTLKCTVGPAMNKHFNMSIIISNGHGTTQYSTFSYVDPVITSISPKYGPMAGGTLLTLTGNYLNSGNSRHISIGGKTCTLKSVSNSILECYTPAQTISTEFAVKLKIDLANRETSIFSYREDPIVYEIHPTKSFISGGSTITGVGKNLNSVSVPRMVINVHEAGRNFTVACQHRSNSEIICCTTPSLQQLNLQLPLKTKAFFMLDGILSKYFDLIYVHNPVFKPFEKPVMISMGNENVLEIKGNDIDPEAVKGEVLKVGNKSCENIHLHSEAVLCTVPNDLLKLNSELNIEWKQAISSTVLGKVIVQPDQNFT

B1: 136-D01 peptide-displaying phage (SEQ ID NO: 473) (peptide)
peptide: AQMGHHWDVQWDYKLFHVARGD
As for B1, the “Protein ELISA (fold over background)” value in assay [1] was found to be 3.7 fold. In addition, in assay [2], the “WC ELISA (fold over background)” value stood at 1.23 fold. Further, the figures for the “% of binding in the absence of HGF” value in assay [3] and in assay [4] were 85% and 149%, respectively.

B2: 103-G08 peptide-displaying phage (SEQ ID NO: 459) (peptide)
peptide: AQVGTAEAIMFSDVEDTGVHKF
B2: the “Protein ELISA (fold over background)” value in assay [1] is 5.7 fold. For the same molecule, the “WC ELISA (fold over background)” value in assay [2] stood at 1.33 fold. Further, the “% of binding in the absence of HGF” value in assay [3] stood at 140%; in assay [4] it was 95%.

B3: 116-H02 peptide-displaying phage (SEQ ID NO: 466) (peptide)
peptide: AQKETWEFFDIVYGSGWKFNSP
For B3, the “Protein ELISA (fold over background)” value in assay [1] came out at 4 fold. Moreover, the “WC ELISA (fold over background)” value in assay [2] worked out at 1.23 fold. Further, the “% of binding in the absence of HGF” value in assay [3] was determined as 84%; in assay [4], 72%.

B4: 02-B08 peptide-displaying phage (SEQ ID NO: 467) (peptide)
peptide: AQHSVQRQMDVWMPVQFMAGFT
For the molecule B4, the “Protein ELISA (fold over background)” value in assay [1] came to 3.9 fold. Moreover, the “WC ELISA (fold over background)” value in assay [2] turned out to be 1.3 fold. Further, the entries for the “% of binding in the absence of HGF” value in assay [3] and in assay [4] were 84% and 96%, respectively.

B5: 482-D02 peptide-displaying phage (SEQ ID NO: 017) (peptide)
peptide: AGYYHCIDDFPQCKWMGT
With B5, the “Protein ELISA (fold over background)” value in assay [1] amounted to 3.9 fold. Moreover, the “WC ELISA (fold over background)” value in assay [2] amounted to 1.37 fold. In addition, the entries for the “% of binding in the absence of HGF” value in assay [3] and in assay [4] were 66% and 44%, respectively.

B6: 95-A11 peptide-displaying phage (SEQ ID NO: 456) (peptide)
peptide: AQVGSPMLPSWFSFEANWSS
Turning to B6, in assay [1], the “Protein ELISA (fold over background)” value turned out to be 7 fold. The “WC ELISA (fold over background)” value in assay [2] amounted to 1.3 fold. Also, the “% of binding in the absence of HGF” value was determined as 109% in assay [3] and 108% in assay [4].

B7: 94-G02 peptide-displaying phage (SEQ ID NO: 477) (peptide)
peptide: AQFSGLVMYGRTHEVQWTFGSM
Turning to B7, the “Protein ELISA (fold over background)” value in assay [1] was found to be 3.5 fold. In assay [2], the “WC ELISA (fold over background)” value is 1.3 fold. For the same molecule, the “% of binding in the absence of HGF” value in assay [3] worked out at 108%; in assay [4], 76%.

B8: 76-D09 peptide-displaying phage (SEQ ID NO: 463) (peptide)
peptide: AQSPYIFPIDDSGRQIFVIQWG
Turning to B8, the “Protein ELISA (fold over background)” value in assay [1] stood at 4.4 fold. For the same molecule, in assay [2], the “WC ELISA (fold over background)” value came out at 1.23 fold. Also, the entries for the “% of binding in the absence of HGF” value in assay [3] and in assay [4] were 79% and 87%, respectively.

B9: 465-A06 peptide-displaying phage (SEQ ID NO: 002) (peptide)
peptide: GSYYDCREFQCNKPAP
Take B9: the “Protein ELISA (fold over background)” value in assay [1] worked out at 4.4 fold. The “WC ELISA (fold over background)” value in assay [2] amounted to 1.33 fold. The “% of binding in the absence of HGF” value stood at 56% in assay [3] and 32% in assay [4].

B10: 93-C08 peptide-displaying phage (SEQ ID NO: 464) (peptide)
peptide: AQVPDWLSAVVIEKLIEYGMMV
On to B10, for which the “Protein ELISA (fold over background)” value in assay [1] amounted to 4.4 fold. Further, the “WC ELISA (fold over background)” value in assay [2] came to 1.37 fold. For the same molecule, the entries for the “% of binding in the absence of HGF” value in assay [3] and in assay [4] were 101% and 96%, respectively.

B11: 92-B05 peptide-displaying phage (SEQ ID NO: 465) (peptide)
peptide: AQFDRYWHFAWMDVSFSSGQSG
Regarding B11, the “Protein ELISA (fold over background)” value in assay [1] was found to be 4.3 fold. Further, the “WC ELISA (fold over background)” value in assay [2] amounted to 1.2 fold. In addition, the “% of binding in the absence of HGF” value in assay [3] and in assay [4] was 94% throughout.

B12: 484-D08 peptide-displaying phage (SEQ ID NO: 016) (peptide)
peptide: AGWWSCQWELNVCIWQGT
Take B12: the “Protein ELISA (fold over background)” value in assay [1] stood at 4.1 fold. Besides, in assay [2], the “WC ELISA (fold over background)” value amounted to 1.33 fold. For the same molecule, the “% of binding in the absence of HGF” value in assay [3] worked out at 105%; in assay [4], 90%.

B13: 94-B08 peptide-displaying phage (SEQ ID NO: 470) (peptide)
peptide: AQAYEWWADESIFNHGYYWGHQ
On to B13, for which the “Protein ELISA (fold over background)” value in assay [1] was 3.8 fold. Besides, the “WC ELISA (fold over background)” value in assay [2] amounted to 1.2 fold. The “% of binding in the absence of HGF” value worked out at 111% in assay [3] and 121% in assay [4].

B14: 94-H04 peptide-displaying phage (SEQ ID NO: 457) (peptide)
peptide: AQNAVVPPPMLWSIYWDYGREG
As for B14, the “Protein ELISA (fold over background)” value in assay [1] came out at 7 fold. Besides, the “WC ELISA (fold over background)” value in assay [2] amounted to 1.37 fold. The “% of binding in the absence of HGF” value was found to be 150% in assay [3] and 101% in assay [4].

B15: 130-E10 peptide-displaying phage (SEQ ID NO: 472) (peptide)
peptide: AQEWEREYFVDGFWGSWFGIPH
For the molecule B15, the “Protein ELISA (fold over background)” value in assay [1] amounted to 3.7 fold. The “WC ELISA (fold over background)” value in assay [2] was found to be 1.8 fold. Further, the “% of binding in the absence of HGF” value in assay [3] is 100%; in assay [4] it was 92%.

B16: 94-F07 peptide-displaying phage (SEQ ID NO: 458) (peptide)
peptide: AQPYYELQDADMLLVVALLSTG
Regarding B16, in assay [1], the “Protein ELISA (fold over background)” value worked out at 6.1 fold. Further, the “WC ELISA (fold over background)” value in assay [2] amounted to 1.2 fold. For the same molecule, the “% of binding in the absence of HGF” value was 106% in assay [3] and 104% in assay [4].

B17: 117-F03 peptide-displaying phage (SEQ ID NO: 468) (peptide)
peptide: AQEWQTWTWNMIEVISENKTP
In the case of B17, in assay [1], the “Protein ELISA (fold over background)” value is 3.8 fold. The “WC ELISA (fold over background)” value in assay [2] amounted to 1.4 fold. Further, the “% of binding in the absence of HGF” value in assay [3] came to 104%; in assay [4], 93%.

B18: 15-D02 peptide-displaying phage (SEQ ID NO: 474) (peptide)
peptide: AQELFQILEKQMWSDFMEWATP
For B18, in assay [1], the “Protein ELISA (fold over background)” value was found to be 3.6 fold. Moreover, the “WC ELISA (fold over background)” value in assay [2] came to 1.23 fold. Besides, the entries for the “% of binding in the absence of HGF” value in assay [3] and in assay [4] were 97% and 118%, respectively.

B19: 117-F08 peptide-displaying phage (SEQ ID NO: 462) (peptide)
peptide: AQHQYGQMMVLHIQYDMGEFIP
For B19, the “Protein ELISA (fold over background)” value in assay [1] is 4.5 fold. For the same molecule, the “WC ELISA (fold over background)” value in assay [2] stood at 1.27 fold. Moreover, the “% of binding in the absence of HGF” value is 102% in assay [3] and 270% in assay [4].

B20: 94-A06 peptide-displaying phage (SEQ ID NO: 476) (peptide)
peptide: AQHGYLSPLKQYQMSHVEFWTY
For B20, the “Protein ELISA (fold over background)” value in assay [1] came out at 3.5 fold. In addition, the “WC ELISA (fold over background)” value in assay [2] was 1.17 fold. Also, the “% of binding in the absence of HGF” value turned out to be 84% in assay [3] and 96% in assay [4].

B21: 127-A07 peptide-displaying phage (SEQ ID NO: 469) (peptide)
peptide: AQGFELWVDHTRNFFIAISP
As to B21, in assay [1], the “Protein ELISA (fold over background)” value was 3.8 fold. Also, the “WC ELISA (fold over background)” value in assay [2] worked out at 1.2 fold. For the same molecule, the “% of binding in the absence of HGF” value in assay [3] turned out to be 101%; in assay [4], 107%.

B22: 75-B12 peptide-displaying phage (SEQ ID NO: 478) (peptide)
peptide: AQAEWVITSEEFYWKMADFGPP
Regarding B22, the “Protein ELISA (fold over background)” value in assay [1] is 3.4 fold. Besides, the “WC ELISA (fold over background)” value in assay [2] is 1.23 fold. Also, the figures for the “% of binding in the absence of HGF” value in assay [3] and in assay [4] were 95% and 108%, respectively.

B23: 104-C09 peptide-displaying phage (SEQ ID NO: 461) (peptide)
peptide: AQDLKPWTAGWEPPWLWTDRGP
As to B23, in assay [1], the “Protein ELISA (fold over background)” value was 5 fold. Besides, the “WC ELISA (fold over background)” value in assay [2] worked out at 1.3 fold. For the same molecule, the “% of binding in the absence of HGF” value is 64% in assay [3] and 50% in assay [4].

B24: 115-G02 peptide-displaying phage (SEQ ID NO: 471) (peptide)
peptide: AQDPGFSKHSMGHGYPSKMNWG
As to B24, in assay [1], the “Protein ELISA (fold over background)” value is 3.7 fold. Also, in assay [2], the “WC ELISA (fold over background)” value came out at 1.27 fold. Further, the figures for the “% of binding in the absence of HGF” value in assay [3] and in assay [4] were 59% and 0%, respectively.

B25: 118-C07 peptide-displaying phage (SEQ ID NO: 460) (peptide)
peptide: AQFPLEFDVPNFSYHWLVSFNP
As to B25, the “Protein ELISA (fold over background)” value in assay [1] was found to be 5.6 fold. In addition, the “WC ELISA (fold over background)” value in assay [2] was 1.27 fold. Also, the “% of binding in the absence of HGF” value in assay [3] is 100%; in assay [4], 84%.

B26: 119-F06 peptide-displaying phage (SEQ ID NO: 455) (peptide)
peptide: AQMYQTPDGVIGKFVDWMFN
B26: the “Protein ELISA (fold over background)” value in assay [1] was determined as 8 fold. Besides, the “WC ELISA (fold over background)” value in assay [2] is 1.33 fold. Moreover, the “% of binding in the absence of HGF” value was 4% in assay [3] and 27% in assay [4].

B27: 489-A04 peptide-displaying phage (SEQ ID NO: 015) (peptide)
peptide: AGLYLCDLSIMYCFFQGT
With B27, the “Protein ELISA (fold over background)” value in assay [1] came to 4.3 fold. Also, in assay [2], the “WC ELISA (fold over background)” value was 1.33 fold. Besides, the “% of binding in the absence of HGF” value in assay [3] was 30%; in assay [4], 13%.

B28: 79-B02 peptide-displaying phage (SEQ ID NO: 475) (peptide)
peptide: AQHWDYDSGSDFWFPVFFLEHH
Turning to B28, the “Protein ELISA (fold over background)” value in assay [1] stood at 3.5 fold. Moreover, the “WC ELISA (fold over background)” value in assay [2] is 1.3 fold. For the same molecule, the “% of binding in the absence of HGF” value is 102% in assay [3] and 86% in assay [4].
